Target: His-tagged recombinant MIF (macrophage migration inhibitory factor), expressed in Escherichia coli from pQE30
Experiment: SPR, BIAcore 2000, His-tagged MIF on Sensor Chip NTA, TRX as analyte, 1:1 binding with drifting baseline model

Sequence of His-tagged recombinant MIF (macrophage migration inhibitory factor), expressed in Escherichia coli from pQE30 (P14174 2-115): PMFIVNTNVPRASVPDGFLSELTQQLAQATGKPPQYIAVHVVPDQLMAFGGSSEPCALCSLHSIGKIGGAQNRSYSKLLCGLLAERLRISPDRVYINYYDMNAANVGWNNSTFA

Recombinant TRX (Ajinomoto Co., Inc.)
Kd: 9.96 nM
kon: 120 M⁻¹ s⁻¹

Source: patent US20090148464A1
